# In the supplement of paper PMC10567573:
# B1: INTS3 (parent)
# chain: FSDDEEDLNSKGKKREFRFHPIKE
# Variants of: B1
# Experiment: protein stability index of a GFP-peptide fusion (GPS, HEK-293T) (PSI 1-6); higher = more stable
# Conditions: c terminus: a fixed tail appended
# 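Also: lentivirally expressed fusions sorted by FACS into six bins by GFP to DsRed ratio, PSI derived from sequencing read proportions per bin multiplied by bin number.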
row,Variant,protein stability index
1,FSDDLEDLNSKGKKREFRFHPIKE [E5L],2.55
2,FSDDEEDDNSKGKKREFRFHPIKE [L8D],3.26
3,FSDDEEDINSKGKKREFRFHPIKE [L8I],2.83
4,FSDDEEDRNSKGKKREFRFHPIKE [L8R],2.94
5,FSDDEEDKNSKGKKREFRFHPIKE [L8K],2.78
6,FSDDEEDTNSKGKKREFRFHPIKE [L8T],3.23
7,FSDDEEDSNSKGKKREFRFHPIKE [L8S],3.37
8,FSDDEEDFNSKGKKREFRFHPIKE [L8F],2.75
9,FSDDEEDHNSKGKKREFRFHPIKE [L8H],2.73
10,FSDDEEDENSKGKKREFRFHPIKE [L8E],3.4
11,FSDDEEDANSKGKKREFRFHPIKE [L8A],3.35
12,FSDDEEDCNSKGKKREFRFHPIKE [L8C],2.99
13,FSDDEEDPNSKGKKREFRFHPIKE [L8P],3.4
14,FSDDEEDNNSKGKKREFRFHPIKE [L8N],2.99
15,FSDDEEDVNSKGKKREFRFHPIKE [L8V],2.99
16,FSDDEEDGNSKGKKREFRFHPIKE [L8G],3.29
17,FSDDEEDWNSKGKKREFRFHPIKE [L8W],2.84
18,FSDDEEDQNSKGKKREFRFHPIKE [L8Q],3.44
19,FSDDEEDYNSKGKKREFRFHPIKE [L8Y],3
20,FSDDEEDMNSKGKKREFRFHPIKE [L8M],2.78
21,FSDDEEDLNEKGKKREFRFHPIKE [S10E],2.99
22,FSDDEEDLNHKGKKREFRFHPIKE [S10H],2.64
23,FSDDEEDLNQKGKKREFRFHPIKE [S10Q],3.43
24,FSDDEEDLNKKGKKREFRFHPIKE [S10K],2.38

row,Variant,protein stability index
1,FSDDEEDLNIKGKKREFRFHPIKE [S10I],2.17
2,FSDDEEDLNLKGKKREFRFHPIKE [S10L],2.57
3,FSDDEEDLNPKGKKREFRFHPIKE [S10P],2.63
4,FSDDEEDLNAKGKKREFRFHPIKE [S10A],2.58
5,FSDDEEDLNVKGKKREFRFHPIKE [S10V],2.75
6,FSDDEEDLNMKGKKREFRFHPIKE [S10M],3.56
7,FSDDEEDLNNKGKKREFRFHPIKE [S10N],3.37
8,FSDDEEDLNYKGKKREFRFHPIKE [S10Y],2.59
9,FSDDEEDLNGKGKKREFRFHPIKE [S10G],2.9
10,FSDDEEDLNRKGKKREFRFHPIKE [S10R],2.41
11,FSDDEEDLNDKGKKREFRFHPIKE [S10D],3.64
12,FSDDEEDLNTKGKKREFRFHPIKE [S10T],2.87
13,FSDDEEDLNWKGKKREFRFHPIKE [S10W],3.56
14,FSDDEEDLNCKGKKREFRFHPIKE [S10C],3.08
15,FSDDEEDLNFKGKKREFRFHPIKE [S10F],2.45
16,FSDNEEDLNSKGKKREFRFHPIKE [D4N],2.82
17,FSDCEEDLNSKGKKREFRFHPIKE [D4C],2.4
18,FSDVEEDLNSKGKKREFRFHPIKE [D4V],2.23
19,FSDTEEDLNSKGKKREFRFHPIKE [D4T],2.56
20,FSDGEEDLNSKGKKREFRFHPIKE [D4G],2.52
21,FSDIEEDLNSKGKKREFRFHPIKE [D4I],2.38
22,FSDMEEDLNSKGKKREFRFHPIKE [D4M],2.4
23,FSDHEEDLNSKGKKREFRFHPIKE [D4H],2.95
24,FSDLEEDLNSKGKKREFRFHPIKE [D4L],2.43

row,Variant,protein stability index
1,FSDKEEDLNSKGKKREFRFHPIKE [D4K],2.02
2,FSDREEDLNSKGKKREFRFHPIKE [D4R],1.85
3,FSDWEEDLNSKGKKREFRFHPIKE [D4W],2.4
4,FSDEEEDLNSKGKKREFRFHPIKE [D4E],3.05
5,FSDQEEDLNSKGKKREFRFHPIKE [D4Q],2.9
6,FSDAEEDLNSKGKKREFRFHPIKE [D4A],2.72
7,FSDSEEDLNSKGKKREFRFHPIKE [D4S],2.75
8,FSDPEEDLNSKGKKREFRFHPIKE [D4P],2.53
9,FSDYEEDLNSKGKKREFRFHPIKE [D4Y],2.51
10,FSDFEEDLNSKGKKREFRFHPIKE [D4F],2.19
11,FSDDEEDLDSKGKKREFRFHPIKE [N9D],3.79
12,FSDDEEDLWSKGKKREFRFHPIKE [N9W],2.12
13,FSDDEEDLASKGKKREFRFHPIKE [N9A],3.15
14,FSDDEEDLESKGKKREFRFHPIKE [N9E],3.6
15,FSDDEEDLVSKGKKREFRFHPIKE [N9V],3.83
16,FSDDEEDLHSKGKKREFRFHPIKE [N9H],2.77
17,FSDDEEDLRSKGKKREFRFHPIKE [N9R],2.76
18,FSDDEEDLKSKGKKREFRFHPIKE [N9K],2.21
19,FSDDEEDLCSKGKKREFRFHPIKE [N9C],2.67
20,FSDDEEDLLSKGKKREFRFHPIKE [N9L],2.99
21,FSDDEEDLPSKGKKREFRFHPIKE [N9P],2.61
22,FSDDEEDLMSKGKKREFRFHPIKE [N9M],2.66
23,FSDDEEDLISKGKKREFRFHPIKE [N9I],2.06
24,FSDDEEDLFSKGKKREFRFHPIKE [N9F],2.31

row,Variant,protein stability index
1,FSDDEEDLSSKGKKREFRFHPIKE [N9S],2.98
2,FSDDEEDLGSKGKKREFRFHPIKE [N9G],2.82
3,FSDDEEDLYSKGKKREFRFHPIKE [N9Y],2.29
4,FSDDEEDLTSKGKKREFRFHPIKE [N9T],3.36
5,FSDDEEDLQSKGKKREFRFHPIKE [N9Q],2.68
6,VSDDEEDLNSKGKKREFRFHPIKE [F1V],3.29
7,PSDDEEDLNSKGKKREFRFHPIKE [F1P],3.19
8,TSDDEEDLNSKGKKREFRFHPIKE [F1T],3.05
9,SSDDEEDLNSKGKKREFRFHPIKE [F1S],2.32
10,MSDDEEDLNSKGKKREFRFHPIKE [F1M],2.58
11,QSDDEEDLNSKGKKREFRFHPIKE [F1Q],3
12,RSDDEEDLNSKGKKREFRFHPIKE [F1R],2.71
13,YSDDEEDLNSKGKKREFRFHPIKE [F1Y],2.94
14,NSDDEEDLNSKGKKREFRFHPIKE [F1N],3.24
15,WSDDEEDLNSKGKKREFRFHPIKE [F1W],2.84
16,FSDDEEDLNSFGKKREFRFHPIKE [K11F],3.24
17,FSDDEEDLNSGGKKREFRFHPIKE [K11G],3.02
18,FSDDEEDLNSHGKKREFRFHPIKE [K11H],3.13
19,FSDDEEDLNSCGKKREFRFHPIKE [K11C],2.99
20,FSDDEEDLNSAGKKREFRFHPIKE [K11A],3.62
21,FSDDEEDLNSDGKKREFRFHPIKE [K11D],3.56
22,FSDDEEDLNSEGKKREFRFHPIKE [K11E],3.38
